Data as given in patent US7169901 (Genentech, dated 2007).

Molecular target: rhVEGF165 (human, UniProt P15692 27-191, limits assumed)
Assay: cell-based or functional assay

Sequence of rhVEGF165 (P15692 other isoform, or with tags, fused parts or gaps limits assumed): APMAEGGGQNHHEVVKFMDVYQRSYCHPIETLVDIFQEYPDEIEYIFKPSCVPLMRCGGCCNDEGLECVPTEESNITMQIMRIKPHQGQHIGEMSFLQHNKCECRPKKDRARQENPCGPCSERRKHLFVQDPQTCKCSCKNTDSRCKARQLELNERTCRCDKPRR

potency in inhibiting VEGF-induced HuVEC growth ([3H]-thymidine), relative to Y0192 Fab: 30 fold
B1: Y0313-1 (Fab, V domains shown)
VH: EVQLVESGGGLVQPGGSLRLSCAASGYDFTHYGMNWVRQAPGKGLEWVGWINTYTGEPTYAADFKRRFTFSLDTSKSTAYLQMNSLRAEDTAVYYCAKYPYYYGTSHWYFDVWGQGTL
VL: DIQLTQSPSSLSASVGDRVTITCRANEQLSNYLNWYQQKPGKAPKVLIYFTSSLHSGVPSRFSGSGSGTDFTLTISSLQPEDFATYYCQQYSTVPWTFGQGTKVEIKR
